This is an account of results in US20090018093.

For orientation: IC50 means the point on the concentration scale where inhibition reaches its midpoint. By Kd is commonly meant the concentration at which binding is half-saturated.

Data set [1] concerns the target T1, Immunoglobulin E (IgE) (Macaca fascicularis) (UniProt A0A7N9DC98).
T1 sequence: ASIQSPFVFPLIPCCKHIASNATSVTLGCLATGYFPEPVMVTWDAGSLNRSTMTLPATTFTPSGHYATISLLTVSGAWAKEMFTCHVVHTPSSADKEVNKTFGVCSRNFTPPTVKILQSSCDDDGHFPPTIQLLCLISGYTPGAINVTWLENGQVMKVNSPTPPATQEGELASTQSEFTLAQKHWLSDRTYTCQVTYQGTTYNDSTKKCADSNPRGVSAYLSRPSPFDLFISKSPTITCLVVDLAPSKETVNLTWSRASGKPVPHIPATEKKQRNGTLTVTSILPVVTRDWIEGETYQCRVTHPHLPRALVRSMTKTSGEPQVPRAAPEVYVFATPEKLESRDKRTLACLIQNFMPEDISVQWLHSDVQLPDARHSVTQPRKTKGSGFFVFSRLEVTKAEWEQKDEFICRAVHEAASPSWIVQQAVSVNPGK
Put plainly: inhibition.

Data set [2] relates to Immunoglobulin E (IgE) (Homo sapiens), P01854-1. Put plainly: filter.
For data set [3] the test system is unchanged. As to the kind of experiment: FP_none. The note with it: 2'-OMe G2 and all C,U, rest 2'-deoxy, 3' idT [2'-OMe at 2,3,4,5,11,12,13,15,22,23, 3'-idT at 24].
The target of data set [4] is T2, Immunoglobulin E (IgE), cynomolgus (Macaca fascicularis) (UniProt A0A7N9DC98).
T2 sequence: T1 sequence
Put plainly: inhibition. The note with it: 2'-F C,U; no inhibition of monkey IgE-FceR1 up to 1 uM.

Data set [5] relates to Immunoglobulin E (IgE) (Homo sapiens), P01854-1. Put plainly: inhibition.
The test system is the same in data set [6]. As to the kind of experiment: FP. The note with it: 2'-F C and U; nitrocellulose dot blot filter, not fluorescence; biphasic, KD2 12.5 nM; 1xSHMCK + 0.1 mg/mL tRNA, RT.
The mark [7] stands for this setting: 3' idT, no inhibition of monkey IgE:FceR1a-Fc up to 250 nM.
[8] abbreviates: 2'-OMe C,U, deoxy A,G, FACS, 15 nM IgE.

Immunoglobulin E (IgE) (Homo sapiens), P01854-1, sequence (P01854 other isoform, or with tags, fused parts or gaps): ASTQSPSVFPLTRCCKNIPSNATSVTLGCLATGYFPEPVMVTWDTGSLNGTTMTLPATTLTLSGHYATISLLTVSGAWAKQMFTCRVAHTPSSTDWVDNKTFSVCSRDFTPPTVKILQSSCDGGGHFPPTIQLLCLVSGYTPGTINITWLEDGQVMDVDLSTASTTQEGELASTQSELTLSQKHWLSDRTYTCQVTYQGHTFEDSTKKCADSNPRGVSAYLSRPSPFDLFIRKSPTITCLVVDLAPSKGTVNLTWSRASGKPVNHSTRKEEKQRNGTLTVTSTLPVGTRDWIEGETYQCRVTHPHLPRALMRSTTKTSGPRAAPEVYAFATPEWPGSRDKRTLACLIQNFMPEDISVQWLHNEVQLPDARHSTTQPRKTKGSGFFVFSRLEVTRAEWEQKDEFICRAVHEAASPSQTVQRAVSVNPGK

For AGCCUGGGGACCCAUGGGGGGCU [ARC445], the IC50 in data set [1] (dRmY: 2'-deoxy A,G, 2'-OMe C,U, ELISA, monkey IgE:FceR1a-Fc, human IC50 63 nM in same assay) amounted to 161 nM. For the same sequence, in data set [2] (dRmY: 2'-deoxy A,G, 2'-OMe C,U, dPBS Ca/Mg + 0.1 mg/mL BSA, RT, 22 nM in PBS with tRNA + ssDNA (Table 10)), the Kd is 3 nM. In turn, AGCCUGGGGACCCAUGGGGGGCU [ARC1251] yielded a Kd in data set [3] of 7 nM.

For AGCCUGGGGACCCAUGGGGGGCU [ARC1666], the IC50 in data set [1] (mAmGmCmCmUdGmGdG-s-dGmAmCmCmCmAmU-s-dI-s-mGdI-s-dGdI-s-dGmCmU-3T [2'-OMe 1-5,7,10-15,17,22,23, dI16,dI18,dI20 (inosine, parent base G), phosphorothioate 8/9,15/16,16/17,18/19,20/21 (N linkage letters left out), 3' inverted dT24], ELISA, monkey IgE:FceR1a-Fc, human IC50 5 nM in same assay) was 8 nM. Moreover, in data set [2] (mAmGmCmCmUdGmGdG-s-dGmAmCmCmCmAmU-s-dI-s-mGdI-s-dGdI-s-dGmCmU-3T [2'-OMe 1-5,7,10-15,17,22,23, dI16,dI18,dI20 (inosine, parent base G), phosphorothioate 8/9,15/16,16/17,18/19,20/21 (N linkage letters left out), 3' inverted dT24], dPBS Ca/Mg + BSA, RT, 0.06 nM in Table 23), the Kd came to 0.035 nM. For “GGAGAUCCGAGGGUGGGCAAUAGGCUCACAAGGGUUU [rRfY minimer SEQ 93]”, the IC50 in data set [4] was over 1000 nM; in data set [5] (2'-F C,U, FACS, 15 nM IgE), 12.5 nM. In addition, the Kd in data set [2] (2'-F C and U, KD2 17.1 nM, 1xSHMCK + tRNA) is 0.65 nM. Regarding “GGCGGCAGCTTTATCCGTACCTCCCAGTGGGCTGCTCC [DNA clone SEQ 149 with 3' idT]”, the IC50 in data set [1] (setting [7]) is over 250 nM. “GGGAAAAGCGAAUCAUACACAAGACGUCGCCAGAUUGAGUGUCGUGGUU [rRfY minimer SEQ 90]” yielded an IC50 in data set [4] of over 1000 nM. Further, in data set [2] (2'-F C and U, KD2 28.2 nM, 1xSHMCK + 0.1 mg/mL tRNA), the Kd is 0.33 nM. In data set [5] (2'-F C,U, ELISA FceR1-Fc, FACS 14 nM (Table 25)), “GGGAAAAGCGAAUCAUACACAAGACGUCGCCAGAUUGAGUGUCGUGGUUCGGGUUGAGGCGGAAGCUCCGCCAGAGACCAACCGAGAA [rRfY clone SEQ 11]” came in with an IC50 of 2.6 nM. In addition, in data set [6], the Kd was found to be 0.144 nM. The sequence “GGGAAAAGCGAAUCAUACACAAGAGUCGCUAGAUUGCUAGUGUAUGGUUUAUCUAAAGGCGGCCGCUCCGCCAGAGACCAACCGAGAA [rRfY clone SEQ 13]” yielded an IC50 in data set [5] (2'-F C,U, ELISA FceR1-Fc, FACS 10.3 nM (Table 25)) of 4.3 nM. In addition, the Kd in data set [2] (2'-F C and U, biphasic, KD2 14.6 nM, 1xSHMCK + tRNA, RT) was found to be 0.139 nM.

In data set [5] (2'-F C,U, ELISA FceR1-Fc, FACS 9.9 nM (Table 25)), “GGGAAAAGCGAAUCAUACACAAGAGUGCCGAGGCAUUGCUUGGUAUGGUUCCGGUCUUGUCGGGGCUCCGCCAGAGACCAACCGAGAA [rRfY clone SEQ 19]” came in with an IC50 of 7.4 nM. Also, the dissociation constant Kd in data set [2] (2'-F C and U, biphasic, KD2 17.4 nM, 1xSHMCK + tRNA, RT) worked out at 0.095 nM. For “GGGAAAAGCGAAUCAUACACAAGAUCCGAGGGUGGGCAAUAGGCUCACAAGGGUUUCGCGUGAUGCUCCGCCAGAGACCAACCGAGAA [rRfY clone SEQ 18]”, the IC50 in data set [5] (2'-F C,U, ELISA FceR1-Fc, FACS 35 nM (Table 25)) was 51.3 nM. Also, the Kd in data set [2] (2'-F C and U, biphasic, KD2 27.3 nM, 1xSHMCK + tRNA, RT) worked out at 1.14 nM. On to “GGGGCTACTTTATCCGTACCTCCCAGTGGGTAGCCCC [ARC476]”, for which the IC50 in data set [5] (FACS, 15 nM IgE) amounted to 17.4 nM. In addition, the Kd in data set [2] was 0.2 nM. The sequence “GGGGCTACTTTATCCGTCCCTCCTAGTGGGTAGCCCC [ARC475 with 3' idT]” yielded an IC50 in data set [1] (setting [7]) of over 250 nM. Take “GGGGCTACTTTATCCGTCCCTCCTAGTGGGTAGCCCC [ARC475]”: the IC50 in data set [5] (FACS, 15 nM IgE) was determined as 17.1 nM. The Kd in data set [2] amounted to 0.5 nM. For “GGGGCTACTTTATCCGTTCCTCCTAGTGGGTAGCCCC [ARC480]” the same measures were 9.7 nM and 0.2 nM.

As for “GGGGCTACTTTATCCGTTCCTCTTAGTGGGTAGCCCC [ARC479]”, in data set [5] (FACS, 15 nM IgE), the IC50 was found to be 14.4 nM. For the same sequence, the Kd in data set [2] was found to be 0.4 nM. In data set [5] (setting [8]), GUUCUGGGGACCCAUGGGGGAAC [ARC442] displayed an IC50 of 58.9 nM. This sequence returned a Kd in data set [2] (dRmY: 2'-deoxy A,G, 2'-OMe C,U, 1xPBS, BSA, 1 mg/mL tRNA, ssDNA, 25 C) of 174 nM.

The sequence UAGCCUGGGGACCCAUGGGGGGCUA [ARC446] had an IC50 in data set [5] (setting [8]) of 33.8 nM. Moreover, the Kd in data set [2] (dRmY: 2'-deoxy A,G, 2'-OMe C,U, 1xPBS, BSA, tRNA, ssDNA, 25 C) stood at 43 nM.
